Data as given in paper PMC5031558 (2016).

B1: SPATA2 PUB domain (aa 1–241) (domain or fragment)
chain: MGKPSSMDTKFKDDLFRKYVQFHESKVDTTTSRQRPGSDECLRVAASTLLSLHKVDPFYRFRLIQFYEVVESSLRSLSSSSLRALHGAFSMLETVGINLFLYPWKKEFRSIKTYTGPFVYYVKSTLLEEDIRAILSCMGYTPELGTAYKLRELVETLQVKMVSFELFLAKVECEQMLEIHSQVKDKGYSELDIVSERKSSAEDVRGCSDALRRRAEGREHLTASMSRVALQKSASERAAKD

Tests used:
[1] = biological target: T1, CYLD USP domain I790D (human, UniProt Q9NQC7 583-956, I790D); test: SPR
T1 sequence: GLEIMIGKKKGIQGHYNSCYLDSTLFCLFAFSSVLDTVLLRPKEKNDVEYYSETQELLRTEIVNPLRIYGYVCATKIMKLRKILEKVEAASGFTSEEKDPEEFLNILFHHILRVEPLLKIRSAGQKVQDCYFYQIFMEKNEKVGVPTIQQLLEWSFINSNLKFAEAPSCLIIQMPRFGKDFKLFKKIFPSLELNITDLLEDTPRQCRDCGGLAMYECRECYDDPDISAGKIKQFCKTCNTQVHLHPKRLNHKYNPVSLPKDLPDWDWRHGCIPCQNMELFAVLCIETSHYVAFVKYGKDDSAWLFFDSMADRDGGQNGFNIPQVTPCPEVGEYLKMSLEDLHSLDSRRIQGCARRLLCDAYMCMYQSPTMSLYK

[2] = biological target: T1, CYLD USP domain I790D; test: SPR; kinetic
[3] = biological target: CYLD ΔB-box (purified USP domain without the B-box) (human, UniProt Q9NQC7 592-950); test: SPR; equilibrium
[4] = biological target: T2, CYLD USP domain L622D (human, UniProt Q9NQC7 583-956, L622D); test: SPR; equilibrium
T2 sequence: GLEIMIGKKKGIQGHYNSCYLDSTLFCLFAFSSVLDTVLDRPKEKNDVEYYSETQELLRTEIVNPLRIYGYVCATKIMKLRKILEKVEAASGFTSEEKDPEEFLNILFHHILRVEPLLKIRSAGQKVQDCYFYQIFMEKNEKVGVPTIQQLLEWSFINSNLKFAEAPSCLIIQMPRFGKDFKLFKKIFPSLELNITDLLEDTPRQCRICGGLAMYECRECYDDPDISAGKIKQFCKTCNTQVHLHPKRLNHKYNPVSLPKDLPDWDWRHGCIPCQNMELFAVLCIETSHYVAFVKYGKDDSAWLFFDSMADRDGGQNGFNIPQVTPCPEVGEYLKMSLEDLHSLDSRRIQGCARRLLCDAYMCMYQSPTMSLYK

[5] = biological target: B1; test: SPR
[6] = biological target: B1; test: SPR; kinetic

| Binder | koff [1] [s⁻¹] | Kd [2] [nM] | Kd [3] [nM] | Kd [4] [nM] | koff [5] [s⁻¹] | Kd [6] [nM] |
| --- | --- | --- | --- | --- | --- | --- |
| B1 | 0.086 | 585 | > 100000 | > 60000 | – | – |
| CYLD USP domain (aa 583–956) (domain or fragment) GLEIMIGKKKGIQGHYNSCYLDSTLFCLFAFSSVLDTVLLRPKEKNDVEYYSETQELLRTEIVNPLRIYGYVCATKIMKLRKILEKVEAASGFTSEEKDPEEFLNILFHHILRVEPLLKIRSAGQKVQDCYFYQIFMEKNEKVGVPTIQQLLEWSFINSNLKFAEAPSCLIIQMPRFGKDFKLFKKIFPSLELNITDLLEDTPRQCRICGGLAMYECRECYDDPDISAGKIKQFCKTCNTQVHLHPKRLNHKYNPVSLPKDLPDWDWRHGCIPCQNMELFAVLCIETSHYVAFVKYGKDDSAWLFFDSMADRDGGQNGFNIPQVTPCPEVGEYLKMSLEDLHSLDSRRIQGCARRLLCDAYMCMYQSPTMSLYK | – | – | – | – | 0.02 | 84 |
